Measurements as given in patent publication US6333311, “Useful properties of human lactoferrin and variants thereof” (Pharming, dated 2001).

B1: human lysozyme (enzyme)
chain: KVFERCELARTLKRLGMDGYRGISLANWMCLAKWESGYNTRATNYNAGDRSTDYGIFQINSRYWCNDGKTPGAVNACHLSCSALLQDNIADAVACAKRVVRDPQGIRAWVAWRNRCQNRDVRQYVQGCGV
B2: natural human lactoferrin (ligand)
chain: GRRRRSVQWCAVSQPEATKCFQWQRNMRKVRGPPVSCIKRDSPIQCIQAIAENRADAVTLDGGFIYEAGLAPYKLRPVAAEVYGTERQPRTHYYAVAVVKKGGSFQLNELQGLKSCHTGLRRTAGWNVPIGTLRPFLNWTGPPEPIEAAVARFFSASCVPGADKGQFPNLCRLCAGTGENKCAFSSQEPYFSYSGAFKCLRDGAGDVAFIRESTVFEDLSDEAERDEYELLCPDNTRKPVDKFKDCHLARVPSHAVVARSVNGKEDAIWNLLRQAQEKFGKDKSPKFQLFGSPSGQKDLLFKDSAIGFSRVPPRIDSGLYLGSGYFTAIQNLRKSEEEVAARRARVVWCAVGEQELRKCNQWSGLSEGSVTCSSASTTEDCIALVLKGEADAMSLDGGYVYTAGKCGLVPVLAENYKSQQSSDPDPNCVDRPVEGYLAVAVVRRSDTSLTWNSVKGKKSCHTAVDRTAGWNIPMGLLFNQTGSCKFDEYFSQSCAPGSDPRSNLCALCIGDEQGENKCVPNSNERYYGYTGAFRCLAENAGDVAFVKDVTVLQNTDGNNNEAWAKDLKLADFALLCLDGKRKPVTEARSCHLAMAPNHAVVSRMDKVERLKQVLLHQQAKFGRNGSDCPDKFCLFQSETKNLLFNDNTECLARLHGKTTYEKYLGPQYVAGITNLKKCSTSPLLEACEFLRK

Experiments:
[1] = target: B2; test: solid-phase ligand binding ELISA, hLZ-coated plates
human transferrin = human transferrin (human, UniProt P02787); test: competitive ELISA: hTF as competitor of 12.5 nM biotinylated hLF on hLZ-coated plates
human lysozyme = target: B1; test: competitive ELISA: unlabelled competitor against 12.5 nM biotinylated hLF on hLZ-coated plates

binding result [1]	binding result (human transferrin)	IC50 (human lysozyme) [nM]	Binder
binds	no binding		B1
		11.2	B2
		15.4	iron-saturated human lactoferrin (ligand) GRRRRSVQWCAVSQPEATKCFQWQRNMRKVRGPPVSCIKRDSPIQCIQAIAENRADAVTLDGGFIYEAGLAPYKLRPVAAEVYGTERQPRTHYYAVAVVKKGGSFQLNELQGLKSCHTGLRRTAGWNVPIGTLRPFLNWTGPPEPIEAAVARFFSASCVPGADKGQFPNLCRLCAGTGENKCAFSSQEPYFSYSGAFKCLRDGAGDVAFIRESTVFEDLSDEAERDEYELLCPDNTRKPVDKFKDCHLARVPSHAVVARSVNGKEDAIWNLLRQAQEKFGKDKSPKFQLFGSPSGQKDLLFKDSAIGFSRVPPRIDSGLYLGSGYFTAIQNLRKSEEEVAARRARVVWCAVGEQELRKCNQWSGLSEGSVTCSSASTTEDCIALVLKGEADAMSLDGGYVYTAGKCGLVPVLAENYKSQQSSDPDPNCVDRPVEGYLAVAVVRRSDTSLTWNSVKGKKSCHTAVDRTAGWNIPMGLLFNQTGSCKFDEYFSQSCAPGSDPRSNLCALCIGDEQGENKCVPNSNERYYGYTGAFRCLAENAGDVAFVKDVTVLQNTDGNNNEAWAKDLKLADFALLCLDGKRKPVTEARSCHLAMAPNHAVVSRMDKVERLKQVLLHQQAKFGRNGSDCPDKFCLFQSETKNLLFNDNTECLARLHGKTTYEKYLGPQYVAGITNLKKCSTSPLLEACEFLRK
